The values below come from PMC8828050, “Covalent inhibition of endoplasmic reticulum chaperone GRP78 disconnects the transduction of ER stress signals to inflammation and lipid accumulation in diet-induced obese mice” (eLife, 2022).

The target of experiment [1] is T1, Recombinant 6xHis-tagged human GRP78 protein, biotinylated (human, UniProt P11021 19-654, biotin (EZ-Link Sulfo-NHS-Biotin)).
T1 construct: 78 kDa glucose-regulated protein (GRP78), human, recombinant from Abcam; Captured on the streptavidin chip through the biotin; No Abcam catalogue number is printed; also called 78 kDa glucose-regulated protein; biotinylated GRP78; source: bought: Abcam
Put plainly: SPR; biotinylated GRP78 captured on streptavidin Sensor Chip SA; peptide 2.5 nM to 320 μM flowed at 30 μl/min, 25°C; 10 mM HEPES, 150 mM NaCl, 3 mM EDTA, 0.005% Tween-20, pH 7.4; steady-state analysis, 1:1 model; Biacore X100; average of four runs. As to conditions: both partners purified.

Experiment [2] concerns the target T2, Recombinant 6xHis-tagged human GRP78 protein, biotinylated, saturated with 10 μM celastrol (human, UniProt P11021 19-654, biotin (EZ-Link Sulfo-NHS-Biotin); celastrol covalently bound to Cys41 (mapped on recombinant mouse GRP78)).
T2 construct: 78 kDa glucose-regulated protein (GRP78), human, recombinant from Abcam; Same protein as m2, after saturation with celastrol; The covalent site Cys41 was mapped by LC-MS/MS on mouse GRP78 made in E. coli, not on the human protein on the chip; also called celastrol–GRP78 conjugate; GRP78-coated Sensor Chip saturated by celastrol; source: bought: Abcam; saturated on the chip with 10 μM celastrol
Put plainly: SPR; as a1, but the GRP78 chip was saturated with 10 μM celastrol before the peptide; peptide 1.56 to 100 μM; steady-state analysis, 1:1 model; n = 4. As to conditions: both partners purified.

T1 sequence (P11021 19-654): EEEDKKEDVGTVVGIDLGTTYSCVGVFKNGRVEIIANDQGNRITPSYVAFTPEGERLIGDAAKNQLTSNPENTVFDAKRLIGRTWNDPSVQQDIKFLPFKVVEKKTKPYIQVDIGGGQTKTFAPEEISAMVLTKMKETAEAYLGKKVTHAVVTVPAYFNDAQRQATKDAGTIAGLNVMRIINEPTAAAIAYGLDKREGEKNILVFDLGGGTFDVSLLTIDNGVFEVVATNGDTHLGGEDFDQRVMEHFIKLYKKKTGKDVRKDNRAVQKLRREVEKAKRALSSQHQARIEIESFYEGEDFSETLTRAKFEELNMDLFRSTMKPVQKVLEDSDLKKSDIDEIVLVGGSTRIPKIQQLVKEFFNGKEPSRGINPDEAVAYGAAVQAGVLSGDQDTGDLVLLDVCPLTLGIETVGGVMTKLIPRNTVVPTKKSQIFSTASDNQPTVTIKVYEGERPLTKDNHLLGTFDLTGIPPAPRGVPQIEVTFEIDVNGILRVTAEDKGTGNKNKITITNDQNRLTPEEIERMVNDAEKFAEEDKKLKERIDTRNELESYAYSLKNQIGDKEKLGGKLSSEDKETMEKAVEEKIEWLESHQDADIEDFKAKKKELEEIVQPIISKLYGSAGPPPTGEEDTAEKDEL
T2 sequence (P11021 19-654): as above

B1: synthetic GRP78-targeting peptide WDLAWMFRLPVG (peptide)
peptide: WDLAWMFRLPVG
notes: synthetic GRP78-targeting peptide, as described in Arap et al., 2004; That it is not a natural stretch is surmised; also called synthetic peptide; source: synthetic peptide (GL Biochem Ltd, Shanghai)
Consider B1, for which the Kd was determined as 17.7 nM in experiment [1] and 2230 nM in experiment [2].
